Reference: publication PMC6852375 (The Febs Journal, 2019)

Columns and labels:
Murine OPG-Fc [1] = target: T1, Murine OPG-Fc (mouse, UniProt O08712 22-401); test: SPR
T1 sequence (looked up): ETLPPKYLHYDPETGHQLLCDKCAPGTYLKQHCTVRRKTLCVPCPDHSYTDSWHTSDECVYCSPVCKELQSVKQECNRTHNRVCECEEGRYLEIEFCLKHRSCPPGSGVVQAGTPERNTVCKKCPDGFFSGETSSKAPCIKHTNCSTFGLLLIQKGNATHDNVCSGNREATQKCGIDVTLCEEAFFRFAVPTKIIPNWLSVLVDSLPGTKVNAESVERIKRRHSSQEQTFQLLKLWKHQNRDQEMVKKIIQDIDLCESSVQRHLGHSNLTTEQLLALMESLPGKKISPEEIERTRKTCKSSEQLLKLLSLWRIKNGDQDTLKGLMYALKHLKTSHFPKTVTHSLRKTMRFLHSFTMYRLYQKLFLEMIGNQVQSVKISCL

Murine RANK-Fc = target: T2, Murine RANK-Fc (mouse, UniProt O35305 31-214); test: SPR
T2 sequence (looked up): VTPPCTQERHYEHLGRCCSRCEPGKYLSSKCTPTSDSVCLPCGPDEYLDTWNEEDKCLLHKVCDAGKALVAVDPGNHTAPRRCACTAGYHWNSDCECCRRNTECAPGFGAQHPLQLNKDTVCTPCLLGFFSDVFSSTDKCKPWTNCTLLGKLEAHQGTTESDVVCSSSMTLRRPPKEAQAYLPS

Murine OPG-Fc [2] = target: T1, Murine OPG-Fc; test: ELISA

Binder | Kd (Murine OPG-Fc [1]) [pM] | koff (Murine OPG-Fc [1]) [s⁻¹] | kon (Murine OPG-Fc [1]) [M⁻¹ s⁻¹] | Kd (Murine RANK-Fc) [pM] | koff (Murine RANK-Fc) [s⁻¹] | kon (Murine RANK-Fc) [M⁻¹ s⁻¹] | binding relative to RANKL_WT (Murine OPG-Fc [2]) [%]
RANKL_WT (mouse soluble RANKL, aa 160–316) (ligand, UniProt O35235 160-316, looked up) EAQPFAHLTINAASIPSGSHKVTLSSWYHDRGWAKISNMTLSNGKLRVNQDGFYYLYANICFRHHETSGSVPTDYLQLMVYVVKTSIKIPSSHNLMKGGSTKNWSGNSEFHFYSINVGGFFKLRAGEEISIQVSNPSLLDPDQDATYFGAFKVQDID | 4.3 ± 1.6 | 7e-05 | 1.8e+07 | 11.9 ± 1.5 | 0.0001 | 8.4e+06 | –
RANKL_Q236K (ligand, mouse, UniProt O35235 160-316, looked up) EAQPFAHLTINAASIPSGSHKVTLSSWYHDRGWAKISNMTLSNGKLRVNQDGFYYLYANICFRHHETSGSVPTDYLKLMVYVVKTSIKIPSSHNLMKGGSTKNWSGNSEFHFYSINVGGFFKLRAGEEISIQVSNPSLLDPDQDATYFGAFKVQDID | 143 ± 44.6 | 0.00146 | 1.1e+07 | 119 ± 10.5 | 0.00095 | 8e+06 | –
RANKL_Q236D (ligand, mouse, UniProt O35235 160-316, looked up) EAQPFAHLTINAASIPSGSHKVTLSSWYHDRGWAKISNMTLSNGKLRVNQDGFYYLYANICFRHHETSGSVPTDYLDLMVYVVKTSIKIPSSHNLMKGGSTKNWSGNSEFHFYSINVGGFFKLRAGEEISIQVSNPSLLDPDQDATYFGAFKVQDID | 112 ± 24.4 | 0.0007 | 6e+06 | 15 ± 3.2 | 9e-05 | 6.4e+06 | 25
RANKL_Q236P (ligand, mouse, UniProt O35235 160-316, looked up) EAQPFAHLTINAASIPSGSHKVTLSSWYHDRGWAKISNMTLSNGKLRVNQDGFYYLYANICFRHHETSGSVPTDYLPLMVYVVKTSIKIPSSHNLMKGGSTKNWSGNSEFHFYSINVGGFFKLRAGEEISIQVSNPSLLDPDQDATYFGAFKVQDID | 21.3 ± 8.2 | 0.00022 | 1.1e+07 | 19.8 ± 6 | 0.00012 | 6.1e+06 | –
RANKL_Q236N (ligand, mouse, UniProt O35235 160-316, looked up) EAQPFAHLTINAASIPSGSHKVTLSSWYHDRGWAKISNMTLSNGKLRVNQDGFYYLYANICFRHHETSGSVPTDYLNLMVYVVKTSIKIPSSHNLMKGGSTKNWSGNSEFHFYSINVGGFFKLRAGEEISIQVSNPSLLDPDQDATYFGAFKVQDID | 20.7 ± 3.7 | 0.00031 | 1.5e+07 | 22.1 ± 2.9 | 0.00017 | 7.9e+06 | –
RANKL_Q236H (ligand, mouse, UniProt O35235 160-316, looked up) EAQPFAHLTINAASIPSGSHKVTLSSWYHDRGWAKISNMTLSNGKLRVNQDGFYYLYANICFRHHETSGSVPTDYLHLMVYVVKTSIKIPSSHNLMKGGSTKNWSGNSEFHFYSINVGGFFKLRAGEEISIQVSNPSLLDPDQDATYFGAFKVQDID | 16.6 ± 1.6 | 0.00022 | 1.3e+07 | 18.7 ± 2.8 | 0.00013 | 6.7e+06 | –
RANKL_Q236S (ligand, mouse, UniProt O35235 160-316, looked up) EAQPFAHLTINAASIPSGSHKVTLSSWYHDRGWAKISNMTLSNGKLRVNQDGFYYLYANICFRHHETSGSVPTDYLSLMVYVVKTSIKIPSSHNLMKGGSTKNWSGNSEFHFYSINVGGFFKLRAGEEISIQVSNPSLLDPDQDATYFGAFKVQDID | 23.3 ± 4.5 | 0.00031 | 1.4e+07 | 24.9 ± 5.1 | 0.00018 | 7e+06 | –
RANKL_Q236A (ligand, mouse, UniProt O35235 160-316, looked up) EAQPFAHLTINAASIPSGSHKVTLSSWYHDRGWAKISNMTLSNGKLRVNQDGFYYLYANICFRHHETSGSVPTDYLALMVYVVKTSIKIPSSHNLMKGGSTKNWSGNSEFHFYSINVGGFFKLRAGEEISIQVSNPSLLDPDQDATYFGAFKVQDID | 20.5 ± 2.2 | 0.00033 | 1.6e+07 | 21.5 ± 6.6 | 0.00018 | 8.9e+06 | –
